In patent publication US11945858B2, “Antibodies and antibody fragments against HNAV1.7 channel and their use in pain and cancer indications” (NATIONAL RESEARCH COUNCIL OF CANADA, priority 2018, dated 2024):
Entries after “also recorded” stand apart in the source; their conditions may differ.

Legend:
[1] = tested on: CFA-induced thermal hyperalgesia; experiment: Hargreaves Model of Hyperalgesia in rats; type: in vivo, rat
Summary of the method: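 Thermal hyperalgesia was measured with a radiant heat source applied to the plantar surface of both hind paws using a plantar Analgesia Meter. Latency was taken as the time until the rat licked or flicked the paw, with an automatic 20 sec cut-off. Rats were housed singly and randomized, testers were blinded, and % MPE = (Test−Baseline)×100/(Cut-off−Baseline).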

[2] = biological target: T1, FC5DIE3IR (Homo sapiens, UniProt Q15858); experiment: Surface Plasmon Resonance of mAbs, FC5DIE3IR; type: binding
T1 construct: The supernatant was collected and loaded on a 5 ml MabSelect™ SuRe™ column; made in house; host or cells: CHO-3E7 (transient, pTT5 vector), purified from supernatant
Method: Surface Plasmon Resonance of mAbs. FC5 and FC5DIE3IR proteins were SEC purified using a Superdex 75 column (GE Healthcare) connected to an AKTAPurifier (GE Healthcare) in HBS-EP+ running buffer (10 mM HEPES, pH 7.4, containing 150 mM NaCl, 3 mM EDTA and 0.05% P20) at a flow rate of 1 ml/min. Monomeric eluted peaks were used to flow over Fc-capture 3A8 mAb surfaces. To prepare the 3A8 mAb surfaces, approximately 6000 RUs of anti-mouse IgG (GE Healthcare) was first immobilized on CM5 Series S sensor chips (GE Healthcare) at pH 5.0, using standard amine coupling methods previously reported (Hussack et al., 2011) and according to the manufacturer's instructions (GE Healthcare). HBS-EP running buffer used for SPR experiments. The mAb 3A8 was captured on the anti-mouse IgG surface using 10 μg/ml of mAb, 30 sec contact time and flow rate of 10 μl/min. IMAC-purified DI-D VHH was passed through a Superdex 75 (GE Healthcare) column for SEC purification in HBS-EP buffer (10 mM HEPES, pH 7.4, containing 150 mM NaCl, 3 mM EDTA and 0.005% P20), connected to an AKTAPurifier (GE Healthcare) at a flow rate of 1 ml/min. Test binding experiments of FC5 control and FC5DIE3IR involved flowing 1 μM concentrations of SEC-pure material over the mAb surface at a flow rate of 30 μl/min for 5 min. Surfaces could be regenerated using 10 mM glycine, pH 1.7, with a 120 sec pulse at 20 μl/min. All SPR experiments were evaluated with Biacore T200 Software v 3.0. For kinetic analysis, single cycle kinetic analysis was used by flowing a range of FC5DIE3IR concentrations (320 nM-20 nM) at a flow rate of 30 μl/min, with 600 sec contact time and 1200 sec dissociation. Regeneration conditions were the same as above. Data were fit to a 1:1 binding model and analyzed using the Biacore T200 Software v3.0.
Surfaces were regenerated by washing with running buffer (HBS-EP). Data were analyzed with BIAevaluation 4.1 software as described (Hussack et al., 2011) and affinities determined using the steady state binding model.
Surface Plasmon Resonance (SPR) for monoclonal antibodies.

[3] = tested on: overlapping antigen-peptides derived from DIE3IR; experiment: ELISA of mAbs on overlapping antigen-peptides derived from DIE3IR; type: binding, human; conditions: peptides coated 100-500 ng/well
Method: The peptides were custom-synthesized (Biomatik) and tested for antibody binding by ELISA. […] The wells were blocked with 1% BSA in TBS-T for 30 min and then incubated with 1:1000 dilution of anti-hNav1.7 mAb at room temperature (RT) for one hr. Following three TBS-T washes (3×5 min), mAb binding to peptides was detected by incubating with HRP-conjugated anti-mouse Fc antibody for 90 min at RT in TBS-T. The bound antibody was detected with SureBlue™ TMB reagent kit (KPL) by colorimetric measurement at 450 nm according to manufacturer's instructions.
To identify the epitope for mAb 3A8 on DIE3IR, seven overlapping antigen-peptides were generated (FIG. 15A) and an ELISA was performed to determine the binding between these peptides and the various mAb (FIGS. 15C to 15I).

B1: 3A8: anti-hNav1.7 mouse monoclonal antibody, IgG2a, k; heavy chain SEQ ID NO: 12, light chain SEQ ID NO: 18 (antibody, V domains shown)
VH: QVQLQQPGAELVKPGASVKLSCKASGYTFTNYWMHWVKQRPGQGLEWIGEINPSNGRANYNEKFKSKATLTVDKSSSTAYMQLSSLTSEDSAVYYCARSPYGYYDYWGQGTTLTVSSAKTTAPSVYPLAP
VL: DVLMTQTPLSLPVSLGDQASISCRSSQSLLHSNGNTYFHWYLQKPGQSPKLLIYKVSNRFFGVPDRFSGSGSGTDFTLKISRVEAEDLGVYFCSQITHVPLTFGAGTKLELKRADAAPTVSIFPPSS
modifications: Heavy chain of the 3A8 antibody without leader sequence; Light chain of the 3A8 antibody without leader sequence
Percentage of effect after injection (on left paw withdrawal) ([1]; 50 μg intraplantar, 0 h): 0% | Latency paw withdrawal ([1]; 50 μg intraplantar, 1 h): 6.08 ± 0.70 s | Percentage of effect after injection (on left paw withdrawal) ([1]; 50 μg intraplantar, 1 h): 18.00% | Latency paw withdrawal ([1]; 50 μg intraplantar, 2 h): 7.38 ± 0.67 s | Percentage of effect after injection (on left paw withdrawal) ([1]; 50 μg intraplantar, 2 h): 24.09% | Latency paw withdrawal ([1]; 50 μg intraplantar, 4 h): 6.79 ± 0.50 s | Percentage of effect after injection (on left paw withdrawal) ([1]; 50 μg intraplantar, 4 h): 22.40% | Maximum effect (% Effect) ([1]; 50 μg intraplantar, reached 2 hours after injection): 24.09±3.69% | Percentage of effect after injection (on left paw withdrawal) ([1]; 100 μg intraplantar, 0 h): 0% | Latency paw withdrawal ([1]; 100 μg intraplantar, 1 h): 9.56 ± 0.70 s | Percentage of effect after injection (on left paw withdrawal) ([1]; 100 μg intraplantar, 1 h): 33.96% | Latency paw withdrawal ([1]; 100 μg intraplantar, 2 h): 10.58 ± 0.90 s | Percentage of effect after injection (on left paw withdrawal) ([1]; 100 μg intraplantar, 2 h): 40.55% | Latency paw withdrawal ([1]; 100 μg intraplantar, 4 h): 10.28 ± 1.20 s | Percentage of effect after injection (on left paw withdrawal) ([1]; 100 μg intraplantar, 4 h): 40.18% | Maximum percentage of the effect (% Effect; % MPE) ([1]; 100 μg intraplantar, time of maximum (1, 2 or 4 h)): 40.55±2.20% | Duration of the reversal of hyperalgesia ([1]; 30 mg/kg intravenous): up to 24 h | Reversal of CFA-induced hyperalgesia (in words) ([1]; 30 mg/kg intravenous): able to reverse CFA-induced hyperalgesia | Percentage of the maximum possible effect (% MPE) ([1]; 30 mg/kg intravenous (tail vein), 4 h): 26.60±3.26% | Latency paw withdrawal time ([1]; 3A8 alone 75 μg intraplantar (FIG. 18)): 10.59 ± 0.87 s | Reversal of hyperalgesia (% MPE) ([1]; 3A8 alone 75 μg intraplantar, 4 h): 35.35%±4.44 | Latency paw withdrawal ([1]; intraplantar injection, 4 hours after administration (FIG. 10)): 8.50 ± 0.94 s | ka [2]: 7050 M⁻¹ s⁻¹ | kd [2]: 0.000259 s⁻¹ | Rmax (RU) ([2]; Fc-captured mAb, FC5-DIE3IR flowed, 25 °C): 80 RU | Binding to FC5DIE3IR (comment, in words) ([2]; SPR, 25 °C): bound specifically FC5DIE3IR; also recorded: strong and specific binding; also recorded: strongly and specifically bound; also recorded: extremely slow off rate | Peptide in which the binding motif resides / that is bound [3]: pep #2a
